Reference: US20230416375A1 (VERSAPEUTICS, published 2023)
Where two headings read alike, the source gives them in different places.

How the values were obtained:
[1] = target: T1, … variant with 9I exchanged by L (human); test: peptide microarray substitution scan, Ab5.5 at 1 µg/mL
T1 construct: Substitution scan peptide
T1 peptide: LDKNTSRTLYDPVHA

[2] = target: T2, wild type peptide LDKNTSRTIYDPVHA (SEQ ID NO:32) (human); test: as above
T2 construct: Printed on a peptide microarray; also called Homo sapiens Ryk(206-220)
T2 peptide: LDKNTSRTIYDPVHA

[3] = target: … variants with 12P exchanged by other amino acids; test: as above
[4] = target: … variants with 11D exchanged by other amino acids; test: as above
[5] = target: … variants with 8T exchanged by other amino acids; test: as above
[6] = target: … variants with 13V replaced by other amino acids; test: as above
[7] = target: … variants with 7R replaced by other amino acids; test: as above
[8] = target: … variants with 10Y exchanged by other amino acids; test: as above
full length human RYK = full length human RYK (human, UniProt P34925 26-607); test: cell-based or functional assay
[9] = target: T3, peptides with the highly basic consensus motif RRKMCYKKLEEVK (SEQ ID NO:31) (human); test: PEPperMAP linear epitope mapping: microarray of 15-mer peptides (14 aa overlap) of human Ryk 134-227, antibody at 10 µg/mL, goat anti-human IgG (Fc) DyLight680
T3 construct: Array spots were 15-mers sharing this motif; also called Homo sapiens Ryk(190-202)
T3 peptide: RRKMCYKKLEEVK

[10] = target: T4, peptides with the highly basic consensus motif SSKNFTVLNFKRRK (SEQ ID NO:29) (human); test: as above
T4 construct: Array spots were 15-mers sharing this motif; also called Homo sapiens Ryk(179-192)
T4 peptide: SSKNFTVLNFKRRK

[11] = target: T5, peptides with the highly basic consensus motif TVLNFKRRKMCYKK (SEQ ID NO:30) (human); test: as above
T5 construct: Array spots were 15-mers sharing this motif; also called Homo sapiens Ryk(184-197)
T5 peptide: TVLNFKRRKMCYKK

[12] = target: T6, peptides with the consensus motif TSRTIYDPV (SEQ ID NO:28) (human); test: as above
T6 construct: The array spots were adjacent 15-mers of human Ryk 134-227 sharing this motif; also called Homo sapiens Ryk(210-218)
T6 peptide: TSRTIYDPV

[13] = target: … variants with 12P exchanged by other amino acids; test: peptide microarray substitution scan, Ab5.5_var1 at 100 µg/mL
[14] = target: … variants with 8T exchanged by other amino acids; test: as above
[15] = target: … variants with 13V replaced by other amino acids; test: as above
[16] = target: … variants with 7R replaced by other amino acids; test: as above
full length mouse RYK = target: T7, full length mouse RYK (mouse, UniProt Q01887 35-594); test: Western blot of RIPA lysates (30 µg per lane) of transfected HEK293 cells, Ab5.5_Var1 at 1 µg/mL, anti-human secondary, LI-COR detection
T7 construct: Expressed from a plasmid (Macheda et al.) in HEK293, and the lysate was probed by Western blot; also called Mus musculus Ryk

[17] = target: T1, … variant with 9I exchanged by L; test: peptide microarray substitution scan, Ab5.5_var1 at 100 µg/mL
[18] = target: T2, wild type peptide LDKNTSRTIYDPVHA (SEQ …); test: as above
[19] = target: T3, peptides with the highly basic …; test: PEPperMAP linear epitope mapping: microarray of 15-mer peptides (14 aa overlap) of human Ryk 134-227, antibody at 10 µg/mL, goat anti-human IgG (Fc) DyLight680
[20] = target: T4, peptides with the highly basic …; test: as above
[21] = target: T5, peptides with the highly basic …; test: as above
[22] = target: T6, peptides with the consensus motif …; test: as above
[23] = target: T3, peptides with the highly basic …; test: PEPperMAP linear epitope mapping: microarray of 15-mer peptides (14 aa overlap) of human Ryk 134-227, goat anti-human IgG (Fc) DyLight680
[24] = target: T8, peptides with the basic consensus motif VLNFKRRKMCYKK (SEQ ID NO:36) (human); test: PEPperMAP linear epitope mapping: microarray of 15-mer peptides (14 aa overlap) of human Ryk 134-227, antibody at 100 µg/mL, goat anti-human IgG (Fc) DyLight680
T8 construct: Array spots were 15-mers sharing this motif; also called Homo sapiens Ryk(185-197)
T8 peptide: VLNFKRRKMCYKK

[25] = target: T9, single peptide NSSKNFTVLNFKRRK (SEQ ID NO:35) (human); test: as above
T9 construct: also called Homo sapiens Ryk(178-192)
T9 peptide: NSSKNFTVLNFKRRK

[26] = target: T6, peptides with the consensus motif …; test: as above

B1: Ab5.5 (antibody, V domains shown)
VH: EVKLVESGGDLVQPGGSLKLSCAASGFTFSSYTMSWIRQTPEKRLEWVAYISNGGGGTYYPDTVKGRFTISRDNAKNTLYLQMNSLKSEDTAMYYCTRHGDNGDYWGHGSTLTVSS
VL: DIKMTQSPSSMYASLGERVTITCKASQDINSYLSWIQQKPGKSPKTLIYRANRLVDGVPSRFSGSGSGQDYSLTISSLEYEDMGIYYCLQYDEFPLTFGAGTKLELK
notes: Parental murine variable domains; also called Chimera antibody; Parental
B1 was tested, and the binding result [1] was “binds”, the binding result [2] was “binds” and the % lower spot intensity than the wild type peptide [3] was 33%. It also gave a % lower spot intensity than the wild type peptide [4] of over 83%, a % lower spot intensity than the wild type peptide [5] of 27% and a % lower spot intensity than the wild type peptide [6] of over 58%. It also gave a % lower spot intensity than the wild type peptide [7] of over 67% and a % lower spot intensity than the wild type peptide [8] of over 83%.

B2: Ab5.5_var1 (antibody, V domains shown)
VH: EVQLVESGGGLVQPGGSLRLSCAASGFTFSSYTMSWIRQAPGKGLEWVAYISNGGGGTYYPDSVKGRFTISRDNAKNTLYLQMNSLRAEDTAVYYCTRHGDNGDYWGHGSLVTVSS
VL: DIQMTQSPSSLSASVGDRVTITCKASQDINSYLSWIQQKPGKAPKTLIYRANRLVDGVPSRFSGSGSGTDYTLTISSLQPEDFATYYCLQYDEFPLTFGAGTKVEIK
notes: Detected with anti-human IgG (Fc); also called variant 1; v1
With B2 the “IC50 of inhibition of canonical Wnt signaling (luciferase reporter) in HEK 293 STF cells stimulated with 250 ng/mL human Wnt-3a” value (full length human RYK) was 484 µg/mL, the binding result [9] was “binds” and the binding result [10] was “binds”. The binding result [11] was “binds”, the binding result [12] was “binds” and the % lower spot intensity than the wild type peptide [13] was 35%. It also gave a % lower spot intensity than the wild type peptide [14] of 7.5%, a % lower spot intensity than the wild type peptide [15] of over 62% and a % lower spot intensity than the wild type peptide [16] of over 70%. B2: binds (full length mouse RYK); binds [17]; binds [18].

B3: Ab5.5_var2 (antibody, V domains shown)
VH: EVQLVESGGGLVQPGGSLRLSCAASGFTFSSYTMSWIRQAPGKGLEWVAYISNGGGGTYYPDSVKGRFTISRDNAKNSLYLQMNSLRAEDTAVYYCTRHGDNGDYWGQGSLVTVSS
VL: DIQMTQSPSSLSASVGDRVTITCKASQDINSYLSWIQQKPGKAPKTLIYRANRLVDGVPSRFSGSGSGTDYTLTISSLQPEDFATYYCLQYDEFPLTFGAGTKVEIK
notes: Detected with anti-human IgG; also called Variant 2; variant 2
B3: binds [19]; binds [20]; binds [21]. B3: binds [22].

B4: Ab5.5_var10 (antibody, V domains shown)
VH: EVQLVESGGGLVQPGGSLRLSCAASGFTFSSYTMSWIRQAPGKGLEWAAYISTGGGGTYYVDSVKGRFTISRDNAKNSLYLQMNSLRAEDTAVYYCTRHGDNGDYWGHGSLVTVSS
VL: DIQMTQSPSSLSASVGDRATITCKASQDINSYLSWIQQKPGKAPKTLIYRANRLVDGVPSRFSGSGSGTDYTLTISSLQPEDFATYYCLQYDEFPLTFGGGTKVEIK
notes: Detected with anti-human IgG; also called variant 10; v10
B4: no binding (tested: 100 µg/mL) [23]; binds [24]; binds [25]. B4: binds [26].
